# Results published in paper PMC1847702 (PLoS ONE, 2007).
# Biological target: T1, ubiquitin-vinylmethylester (UniProt P0CG48 1-76, vinylmethylester (Michael acceptor) added to the C-terminus)
# T1 construct: also called ubiquitin-VME; ubiquitin probe
# Test: covalent adduct formation with electrophilic (activity-based) probe, SDS-PAGE and Coomassie staining
# Details: both partners purified
binder,measurement,value
"His-tagged elaD, bacterially expressed (enzyme, also called recombinant elaD) MMVTVVSNYCQLSQTQLSQTFAEKFTVTEELLQSLKKTALSGDEESIELLHNIALGYDKFGKEAEDILYHIVRTPTNETLSIIRLIKNACLKLYNLAHIATNSPLKSHDSDDLLFKKLFSPSKLMTIIGDEIPLISEKQSLSKVLLNDENNELSDGTNFWDKNRQLTTDEIACYLQKIAANAKNTQVNYPTGLYVPYSTRTHLEDALNENIKSDPSWPNEVQLFPINTGGHWILVSLQKIVNKKNNKLQIKCVIFNSLRALGYDKENSLKRVINSFNSELMGEMSNNNIKVHLNEPEIIFLHADLQQYLSQSCGAFVCMAAQEVIEQRESNSDSAPYTLLKNHADRFKKYSAEEQYEIDFQHRLANRNCYLDKYGDANINHYYRNLEIKHSQPKNRASGKRVS",binding result,binds
